From paper PMC8601423 (PLoS ONE, 2021)

B1: SARS-CoV-2 RBM 20mer F486-Y505 (on peptide array) (peptide)
peptide: not shown

These binders were tested against human ACE2-Fc (Q18-S740) recombinant protein (human, UniProt Q9BYF1 18-740) (assay: peptide or protein array). Conditions: both partners purified.
human ACE2-Fc (Q18-S740) recombinant protein, sequence (Q9BYF1 18-740): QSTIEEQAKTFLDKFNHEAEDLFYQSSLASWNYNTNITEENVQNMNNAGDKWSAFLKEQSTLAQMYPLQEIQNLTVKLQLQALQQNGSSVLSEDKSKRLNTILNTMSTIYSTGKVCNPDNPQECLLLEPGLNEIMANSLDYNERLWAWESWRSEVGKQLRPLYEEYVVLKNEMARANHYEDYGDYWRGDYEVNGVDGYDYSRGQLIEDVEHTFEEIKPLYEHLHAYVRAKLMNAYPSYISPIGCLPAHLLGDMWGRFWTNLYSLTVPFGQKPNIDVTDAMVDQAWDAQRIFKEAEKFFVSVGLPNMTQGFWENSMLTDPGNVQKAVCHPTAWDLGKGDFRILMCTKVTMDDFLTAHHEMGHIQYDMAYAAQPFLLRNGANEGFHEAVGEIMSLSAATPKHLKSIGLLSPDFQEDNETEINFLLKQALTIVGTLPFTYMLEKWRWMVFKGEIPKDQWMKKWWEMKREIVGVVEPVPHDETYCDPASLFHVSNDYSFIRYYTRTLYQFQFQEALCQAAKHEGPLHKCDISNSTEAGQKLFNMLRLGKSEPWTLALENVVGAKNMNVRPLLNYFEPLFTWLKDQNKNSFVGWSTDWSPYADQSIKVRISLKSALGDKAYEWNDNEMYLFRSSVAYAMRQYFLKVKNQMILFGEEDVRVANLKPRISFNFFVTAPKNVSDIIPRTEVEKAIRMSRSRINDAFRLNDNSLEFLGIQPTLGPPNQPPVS
SKVGGNYNYLYRLFRKSNLK [SARS-CoV-2 RBM peptide S438-K462 with S438-D442 removed (N-terminal truncation, on peptide array)]: binds. SNNLDSKVGGNYNYLYRLFRK [SARS-CoV-2 RBM peptide S438-K462 with S459-K462 removed (C-terminal truncation, on peptide array)]: binds. FNCYFPLQSYGFQPTNGVGYQPY: binds. EGFNCYFPLQSYGFQPTNGVGY [SARS-CoV-2 RBM peptide E484-Y508 with Q506-Y508 removed (C-terminal truncation, on peptide array)]: binds. B1: binds.
